Test system: K4 kissing-loop RNA reporter
Assay: apparent KD of K4 kissing-loop reporter; higher = weaker reporter binding
Details: Eterna round: R107
Method: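 RNA-MaP round R107: designed RNA switches with theophylline, tryptophan, arginine or FMN aptamers are transcribed on-chip within common flanks. They are titrated with a labelled K4 kissing-loop RNA reporter in RNA-MaP buffer (100 mM Tris pH 7.5, 80 mM KCl, 4 mM MgCl2), without ligand or with the indicated ligand. Median apparent KD per design.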

[1] = input ligand: theophylline 20 uM
[2] = input ligand: tryptophan 2.4 mM
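Note: bound reporter read as fluorescence of individual clusters on recovered sequencing chips by microscopy, with normalized cluster intensities fitted with a binding model.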

| Sequence | apparent KD of K4 kissing-loop reporter (input ligand: FMN 200 uM) | apparent KD of K4 kissing-loop reporter (input ligand: arginine 13.2 mM) | apparent KD of K4 kissing-loop reporter (input ligand: none) | apparent KD of K4 kissing-loop reporter [1] | apparent KD of K4 kissing-loop reporter [2] |
| --- | --- | --- | --- | --- | --- |
| UGACUGGACUGAAGGAGCGCGCGAGACAAAGUCUCGAACUCUUAGUGAUGUUAAGAAAUAACGCAGGUAGGUCGCAGUCUAGUCU | 0.138 µM | 0.122 µM | 0.147 µM | 0.133 µM | 0.15 µM |
| UGACUGGACUGAAGGAGCGCUAAACUCCUAGUGAUGUUAGGGAAACGAGACAAAGUCUCGAGGCAGGUAGGUCGCAGUCUAGUCU [FiskerMod 1 - Jieux - Same State - Arginine B] | 0.254 µM | 0.199 µM | 0.261 µM | 0.265 µM | 0.244 µM |
| UGACUGGACUGAAGGAGCGCUGAACUCCUAGUGAUGUUAGGAAAACGAGACAAAGUCUCGCGGCAGGUAGGUCGCAGUCUAGUCU | 0.13 µM | 0.0859 µM | 0.108 µM | 0.111 µM | 0.0992 µM |
| UGACUGGACUGAAGGAGCGCUUAACUCCUAGUGAUGUUAGGAAAACGAGACAAAGUCUCGAAGCAGGUAGGUCGCAGUCUAGUCU | 0.152 µM | 0.123 µM | 0.151 µM | 0.158 µM | 0.132 µM |
| UGACUGGACUGAAGGAGCGGGCGAGACAAAGUCUCGAACUCUUAGUGAUGUUAGGAAAUAACCCAGGUAGGUCGCAGUCUAGUCU | 0.243 µM | 0.132 µM | 0.178 µM | 0.216 µM | 0.188 µM |
| UGACUGGACUGAAGGAGCGUUCAGGUAGGUCGCAUAGGAGUGAUGUUCCAAUGAAGGAGCGAGCAGGUAGGUCGCAGUCUAGUCU [ArgBS 13 #DoubleAptamer #SwitchBubble] | 0.157 µM | 0.219 µM | 0.243 µM | 0.205 µM | 0.158 µM |
| UGACUGGAUGGAAGGAGCGCUAAACUCCUAGUGAUGUUAGGGAUACGAGGCAAAGCCUCGAAGCAGGUAGGUCGCCAUCUAGUCU [FiskerMod 21 - Jieux - Same State - Arginine B] | 0.171 µM | 0.123 µM | 0.146 µM | 0.171 µM | 0.159 µM |
| UGACUGGAUGGAAGGAGCGCUAAACUCCUAGUGAUGUUAGGGAUAUGAGGCAAAGCCUUGAAGCAGGUAGGUCGCCAUCUAGUCU [FiskerMod 26 - Jieux - Same State - Arginine B] | 0.141 µM | 0.126 µM | 0.146 µM | 0.146 µM | 0.142 µM |
| UGAUACCAGACGGCCGCCACUACACCAGUCAAAGACUGGAUGUGAUGUCUGACCAGUGAUGUUGGUAGGACCGGGUCUGGUAUCU [TrypBX 6 #Palindromic #SwitchBubble #StaticStem] | 0.246 µM | 0.303 µM | 0.428 µM | 0.45 µM | 0.305 µM |
| UGAUACCAGACGGCCGCCACUACACCAGUCAAAGACUGGAUGUGAUGUUCGACCAGUGAUGUUGGUAGGACCGGGUCUGGUAUCU [TrypBX 7 #Palindromic #SwitchBubble #StaticStem] | 0.133 µM | 0.121 µM | 0.127 µM | 0.109 µM | 0.147 µM |
| UGAUACCAGACGGCCGCCACUCCCGCAGGUCAAAGACCUGCGAAGAAGGUUUUUUAGUGAUGUUGGAGGACCGGGUCUGGUAUCU [FiskerMod 20 - Jieux - Exclusion - Tryptophan B] | 0.311 µM | 0.0926 µM | 0.257 µM | 0.14 µM | 0.689 µM |
| UGAUACCAGACGGCCGCCACUGCGCCAGUCAAUGACUGAGCGCGGUGGCGCUCAGUGAUGUUGUGCAGGACCGGGUCUGGUAUCU [Mod of Eli's TrypBX 8 v6] | 0.476 µM | 0.383 µM | 0.41 µM | 0.364 µM | 0.398 µM |
| UGAUACCAGACUGAUACCAGCCAGUGAUGUUGGCAAUAACCAAGGCGAGUCAAAGACUCGGGCCCUUGGCAGCAGUCUGGUAUCU [TheoBX 6 #SwitchBubble #StaticStem] | 0.134 µM | 0.15 µM | 0.133 µM | 0.143 µM | 0.136 µM |
| UGAUACCAGGCGGCCGCCACUCCUGCAGGUCAAAGACCUGUGAAGCUGGUUCUCCAGUGAUGUUGGAGGACCGGGCCUGGUAUCU [FiskerMod 27 - Jieux - Exclusion - Tryptophan B] | 0.202 µM | 0.176 µM | 0.185 µM | 0.179 µM | 0.356 µM |
| UGAUAGGACAGAAGGAGCGGAGCUGGUCAAAGACCAGCAAUACGUUGAAAAGGAGUGAUGUUCCAGGUAGGUCGCUGUCCUAUCU [ArgBX 27 #SwitchBubble #StaticStem] | 0.0935 µM | 0.103 µM | 0.106 µM | 0.133 µM | 0.0852 µM |
| UGAUAGGACAGAAGGAGCGGGAGUGAUGUUCCCAAAAGGAUAAGGUGUCAAAAGACACCCUCCCAGGUAGGUCGCUGUCCUAUCU | 0.577 µM | 0.311 µM | 0.663 µM | 0.532 µM | 0.544 µM |

| Sequence | apparent KD of K4 kissing-loop reporter (input ligand: FMN 200 uM) | apparent KD of K4 kissing-loop reporter (input ligand: arginine 13.2 mM) | apparent KD of K4 kissing-loop reporter (input ligand: none) | apparent KD of K4 kissing-loop reporter [1] | apparent KD of K4 kissing-loop reporter [2] |
| --- | --- | --- | --- | --- | --- |
| UGAUCUGCAGUGAUGUUGCAGUAGCUGUCAGAGGAUAUCAGACUCAUGAGAAGGCUGACAAUGUCUAACAGCACAAUGCUGUUCA [FMN A SS t6] | 0.156 µM | 0.156 µM | 0.166 µM | 0.197 µM | 0.146 µM |
| UGAUUUAACUGAAGGAGCGGCAAUUGAUAAGUAAAUAUAGUGAUGUUAUAUAAGAGAGAGAGCCAGGUAGGUCGCAGAGGGAGGA [ExArgB.I] | 0.205 µM | 0.138 µM | 0.167 µM | 0.17 µM | 0.14 µM |
| UGCAGUGAUGUUGCGAGUGGCAGAUACGAAGGAGCGUGGUGAGACACAGGUAGGUCGCGUAUUGAAAUUGCUGUCACUAAAAUGC [#7] | 0.448 µM | 0.469 µM | 0.505 µM | 0.483 µM | 0.362 µM |
| UGCCGCAAGGCGAGCGCUCCCACUCCGGAAGGAGCGCCCGGAAGGGCAGGUAGGUCGCCGGAGUGAUGUUCCGGUGGAGGGCUCG [#2 Exclusion - Arginine A Attempt #26 (Inspired by Omei)] | 0.462 µM | 0.165 µM | 0.358 µM | 0.337 µM | 0.297 µM |
| UGCUUUAUCAGAAGGAGCGCGUAAGUUAUACUAAUAAUCAGUGAUGUUGAUAUAUGAUCUUUGCAGGUAGGUCGCUGAUAUAGCU [KL-XARG-B4] | 0.452 µM | 0.419 µM | 0.532 µM | 0.467 µM | 0.472 µM |
| UGGAGUUGACGAAAAGUCAACUCCUGAGAAGGAGCGCACGAAAGUGCAGGUAGGUCGCUCUACCAGUGAUGUUGGUACUUAAUAA [#OpenEnded 6] | 0.0921 µM | 0.17 µM | 0.117 µM | 0.162 µM | 0.0845 µM |
| UGGAGUUGACGAAAAGUCAACUCCUGAGAAGGAGCGGACGAAAGUCCAGGUAGGUCGCUCACUACCAGUGAUGUUGGUAAUUCAA [#OpenEnded 3] | 0.269 µM | 0.284 µM | 0.277 µM | 0.272 µM | 0.234 µM |
| UGGAGUUGACGAAAAGUCAACUCCUGAGAUACCAGUGACGAAAGUCACCCUUGGCAGCUCACUGCCAGUGAUGUUGGUUCAUAAG [#03 K4 Theophylline A Same State] | 0.223 µM | 0.197 µM | 0.152 µM | 0.245 µM | 0.142 µM |
| UGGAGUUGACGAAAAGUCAACUCCUGGGAAGGAGCGGACGAAAGUCCAGGUAGGUCGCCCACUACCAGUGAUGUUGGUACCUAAA | 0.274 µM | 0.32 µM | 0.257 µM | 0.307 µM | 0.206 µM |
| UGGAUAUCGUUUAGUCUGGUGAGGUCAGAUACCAGACUAGCGAUAGUCCCUUGGCAGCUGAUUAUGAUUGAGUGAUGUUCAAUCG [Theo A Ex t9a] | 0.179 µM | 0.154 µM | 0.175 µM | 0.18 µM | 0.18 µM |
| UGGCGACUGCCAGUGAUGUUGGCCGUCGUACGAGGACCGGUACGGCCGCCACUCGUCCUGGUUUAGGCUCCGCCUUCACAUCAGG [Beterire] | 0.401 µM | 0.326 µM | 0.393 µM | 0.784 µM | 0.309 µM |
| UGGGCCGCCUGAGGAUAUAGAGACGAGUGAUGUUCGUGGAUCAGAGCCAGUGAUGUUGGGUUAUUUCUAGAAGGCGGGCGAACUU [Exclusion FMN B GF10] | 0.116 µM | 0.112 µM | 0.12 µM | 0.118 µM | 0.12 µM |
| UGGGUGUAGUGAUGUUAUAUAGAGAGUGAUACCAGUUUAGAGAAGAACCCUUGGCAGCAUAGAAGAGUAUCAUUGGAGAAGAAUG [ExTheophyl.As] | 0.459 µM | 0.348 µM | 0.422 µM | 0.378 µM | 0.339 µM |
| UGGUUUAACUGAAGGAGCGGCAAUUGAUAAGUAGAUAUAGUGAUGUUAUAUAAGAUAGAGAGCCAGGUAGGUCGCAGAGGUGUUU [ExArgB.Q] | 0.208 µM | 0.204 µM | 0.232 µM | 0.253 µM | 0.189 µM |
| UGUACCGAGUCAGGAUAUGGCGUCGAAAGACGAAUCUUAGUGAUGUUAGGGAUCUGCGAAAGCAGUCCAGAAGGGACUUGGUACU [FmnBS 26 U37] | 0.568 µM | 0.583 µM | 0.768 µM | 0.605 µM | 0.901 µM |
| UGUACCGAGUCAGGAUAUGGCGUCGAAAGACGAAUGCUAGUGAUGUUAGGGAUCUGCGAAAGCAGUCCAGAAGGGACUUGGUACU [FmnBS 26 G36] | 0.381 µM | 0.471 µM | 0.653 µM | 0.634 µM | 0.649 µM |
